Reference: patent US20200024322A1 (Eli Lilly, published 2020)
Numbered stars: 1 amine (or outer) side, 2 acyl side, 3 side chain; on linkers, the order of the positions; unused ones are H or OH. Square brackets hold non-standard residues; d marks the D form. Side chains are listed from the residue outwards. Ends that are not written are not given here. * marks the point of attachment. C20 diacid = O=C(O)CCCCCCCCCCCCCCCCCCC(=O)*; γGlu = O=C(O)[C@H](CCC(=O)[*:2])N[*:1]; αMeL = CC(C)C[C@](C)(N)C(=O)O; αMeK = C[C@](N)(CCCCN)C(=O)O; AEEA = NCCOCCOCC(=O)O; Aib = CC(C)(N)C(=O)O

T1: human GIP receptor (human, UniProt P48546 22-466)
T1 construct: whole, on cells; Used as crude membranes of stably transfected CHO cells; also called hGIPR
T1 sequence (looked up): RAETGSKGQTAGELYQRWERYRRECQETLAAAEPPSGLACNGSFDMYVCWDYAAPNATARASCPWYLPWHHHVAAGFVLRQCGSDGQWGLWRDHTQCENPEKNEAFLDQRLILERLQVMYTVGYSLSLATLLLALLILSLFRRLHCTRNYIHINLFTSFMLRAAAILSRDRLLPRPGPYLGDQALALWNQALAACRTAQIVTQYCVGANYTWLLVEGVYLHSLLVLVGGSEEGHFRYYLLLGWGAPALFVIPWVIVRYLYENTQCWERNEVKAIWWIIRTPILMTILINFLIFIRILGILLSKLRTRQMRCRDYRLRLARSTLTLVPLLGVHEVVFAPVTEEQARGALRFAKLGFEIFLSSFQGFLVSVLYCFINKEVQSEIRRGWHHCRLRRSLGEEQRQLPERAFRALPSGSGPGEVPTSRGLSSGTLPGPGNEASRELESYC


What was measured:
human GLP-1 receptor = target: T2, human GLP-1 receptor (human, UniProt P43220 24-463); test: SPA, [125I]-GLP-1 displacement, hGLP-1R membranes
T2 construct: whole, on cells; Used as crude membranes of stably transfected HEK293 cells; also called hGLP1R; hGLP-1R

human GIP receptor = target: T1, human GIP receptor; test: SPA, [125I]-GIP displacement, hGIPR membranes
human glucagon receptor = target: T3, human glucagon receptor (human, UniProt P47871 26-477); test: SPA, [125I]-Gcg displacement, hGcgR membranes
T3 construct: whole, on cells; Used as crude membranes of stably transfected HEK293 cells; also called hGcgR; hGLcgR
T3 sequence (P47871 26-477): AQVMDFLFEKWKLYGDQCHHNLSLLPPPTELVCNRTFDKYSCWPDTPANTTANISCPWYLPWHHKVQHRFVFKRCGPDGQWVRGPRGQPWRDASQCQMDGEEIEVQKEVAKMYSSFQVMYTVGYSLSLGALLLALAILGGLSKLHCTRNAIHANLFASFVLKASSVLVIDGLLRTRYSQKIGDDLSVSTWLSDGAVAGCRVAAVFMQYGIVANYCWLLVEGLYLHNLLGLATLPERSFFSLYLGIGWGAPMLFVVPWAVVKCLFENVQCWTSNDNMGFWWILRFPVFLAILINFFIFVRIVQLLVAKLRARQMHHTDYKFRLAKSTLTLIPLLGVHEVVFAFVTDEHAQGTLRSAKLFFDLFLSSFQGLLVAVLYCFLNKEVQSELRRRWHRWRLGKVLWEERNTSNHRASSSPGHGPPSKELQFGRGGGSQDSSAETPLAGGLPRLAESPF

Row | Binder | Ki (human GLP-1 receptor) [nM] | Ki (human GIP receptor) [nM] | Ki (human glucagon receptor) [nM]
1 | Y[Aib]EGTFTSDYSILLDKK([AEEA-AEEA-γGlu-C20 diacid])AQ[Aib]AFIEYLIEGG-NH2 (N-terminus assumed; SMILES CC[C@H](C)[C@H](NC(=O)[C@H](CC(C)C)NC(=O)[C@H](Cc1ccc(O)cc1)NC(=O)[C@H](CCC(=O)O)NC(=O)[C@@H](NC(=O)[C@H](Cc1ccccc1)NC(=O)[C@H](C)NC(=O)C(C)(C)NC(=O)[C@H](CCC(N)=O)NC(=O)[C@H](C)NC(=O)[C@H](CCCCNC(=O)COCCOCCNC(=O)COCCOCCNC(=O)CC[C@H](NC(=O)CCCCCCCCCCCCCCCCCCC(=O)O)C(=O)O)NC(=O)[C@H](CCCCN)NC(=O)[C@H](CC(=O)O)NC(=O)[C@H](CC(C)C)NC(=O)[C@H](CC(C)C)NC(=O)[C@@H](NC(=O)[C@H](CO)NC(=O)[C@H](Cc1ccc(O)cc1)NC(=O)[C@H](CC(=O)O)NC(=O)[C@H](CO)NC(=O)[C@@H](NC(=O)[C@H](Cc1ccccc1)NC(=O)[C@@H](NC(=O)CNC(=O)[C@H](CCC(=O)O)NC(=O)C(C)(C)NC(=O)[C@@H](N)Cc1ccc(O)cc1)[C@@H](C)O)[C@@H](C)O)[C@@H](C)CC)[C@@H](C)CC)C(=O)N[C@@H](CCC(=O)O)C(=O)NCC(=O)NCC(N)=O) [Example 51] | 5.62 | 0.062 | 195
2 | YXEGTFTSDYSIXLDKKAQXAFIEYLIEGG (Aib2; αMeL13; K17((2-[2-(2-Amino-ethoxy)-ethoxy]-acetyl)2-(γ-Glu)-CO-(CH2)18-CO2H); Aib20; C-terminal NH2) [Example 62] | 2.03 | 0.0545 | 168
3 | YXEGTFTSDYSIXLDSKAQXAFIEYLIEGG (Aib2; αMeL13; K17((2-[2-(2-Amino-ethoxy)-ethoxy]-acetyl)2-(γ-Glu)-CO-(CH2)18-CO2H); Aib20; C-terminal NH2) [Example 64] | 4.86 | 0.0866 | 260
4 | YXEGTFTSDYSIXLDEKAQXAFIEYLIEGG (Aib2; αMeL13; K17((2-[2-(2-Amino-ethoxy)-ethoxy]-acetyl)2-(γ-Glu)-CO-(CH2)18-CO2H); Aib20; C-terminal NH2) [Example 63] | 7.79 | 0.141 | 273
5 | YXEGTFTSDYSIXLDTKAQXAFIEYLIEGG (Aib2; αMeL13; K17((2-[2-(2-Amino-ethoxy)-ethoxy]-acetyl)2-(γ-Glu)-CO-(CH2)18-CO2H); Aib20; C-terminal NH2) [Example 65] | 4.53 | 0.0643 | 194
6 | H[Aib]EGTFTSDYSI[αMeL]LDKK([AEEA-AEEA-γGlu-C20 diacid])AQHAFIEYLIEGGPSSGAPPPS-NH2 (N-terminus assumed; SMILES CC[C@H](C)[C@H](NC(=O)[C@H](CC(C)C)NC(=O)[C@H](Cc1ccc(O)cc1)NC(=O)[C@H](CCC(=O)O)NC(=O)[C@@H](NC(=O)[C@H](Cc1ccccc1)NC(=O)[C@H](C)NC(=O)[C@H](Cc1c[nH]cn1)NC(=O)[C@H](CCC(N)=O)NC(=O)[C@H](C)NC(=O)[C@H](CCCCNC(=O)COCCOCCNC(=O)COCCOCCNC(=O)CC[C@H](NC(=O)CCCCCCCCCCCCCCCCCCC(=O)O)C(=O)O)NC(=O)[C@H](CCCCN)NC(=O)[C@H](CC(=O)O)NC(=O)[C@H](CC(C)C)NC(=O)[C@](C)(CC(C)C)NC(=O)[C@@H](NC(=O)[C@H](CO)NC(=O)[C@H](Cc1ccc(O)cc1)NC(=O)[C@H](CC(=O)O)NC(=O)[C@H](CO)NC(=O)[C@@H](NC(=O)[C@H](Cc1ccccc1)NC(=O)[C@@H](NC(=O)CNC(=O)[C@H](CCC(=O)O)NC(=O)C(C)(C)NC(=O)[C@@H](N)Cc1c[nH]cn1)[C@@H](C)O)[C@@H](C)O)[C@@H](C)CC)[C@@H](C)CC)C(=O)N[C@@H](CCC(=O)O)C(=O)NCC(=O)NCC(=O)N1CCC[C@H]1C(=O)N[C@@H](CO)C(=O)N[C@@H](CO)C(=O)NCC(=O)N[C@@H](C)C(=O)N1CCC[C@H]1C(=O)N1CCC[C@H]1C(=O)N1CCC[C@H]1C(=O)N[C@@H](CO)C(N)=O) [Example 54] | 1.66 | 0.965 | 333
7 | Y[Aib]EGTFTSDYSILLDKK([AEEA-AEEA-γGlu-C20 diacid])AQ[Aib]AFIEYLIEGGPSSG-NH2 (N-terminus assumed; SMILES CC[C@H](C)[C@H](NC(=O)[C@H](CC(C)C)NC(=O)[C@H](Cc1ccc(O)cc1)NC(=O)[C@H](CCC(=O)O)NC(=O)[C@@H](NC(=O)[C@H](Cc1ccccc1)NC(=O)[C@H](C)NC(=O)C(C)(C)NC(=O)[C@H](CCC(N)=O)NC(=O)[C@H](C)NC(=O)[C@H](CCCCNC(=O)COCCOCCNC(=O)COCCOCCNC(=O)CC[C@H](NC(=O)CCCCCCCCCCCCCCCCCCC(=O)O)C(=O)O)NC(=O)[C@H](CCCCN)NC(=O)[C@H](CC(=O)O)NC(=O)[C@H](CC(C)C)NC(=O)[C@H](CC(C)C)NC(=O)[C@@H](NC(=O)[C@H](CO)NC(=O)[C@H](Cc1ccc(O)cc1)NC(=O)[C@H](CC(=O)O)NC(=O)[C@H](CO)NC(=O)[C@@H](NC(=O)[C@H](Cc1ccccc1)NC(=O)[C@@H](NC(=O)CNC(=O)[C@H](CCC(=O)O)NC(=O)C(C)(C)NC(=O)[C@@H](N)Cc1ccc(O)cc1)[C@@H](C)O)[C@@H](C)O)[C@@H](C)CC)[C@@H](C)CC)C(=O)N[C@@H](CCC(=O)O)C(=O)NCC(=O)NCC(=O)N1CCC[C@H]1C(=O)N[C@@H](CO)C(=O)N[C@@H](CO)C(=O)NCC(N)=O) [Example 50] | 4.71 | 0.0568 | 220
8 | YXEGTXTSDYSIXLDXKAQXEFIXYLIEGGPSSGAPPPS (Aib2; αMeF(2F)6; αMeL13; Orn16; K17((2-[2-(2-Amino-ethoxy)-ethoxy]-acetyl)2-(γ-Glu)-CO-(CH2)16-CO2H); Aib20; D-Glu24; C-terminal NH2) [Example 2] | 2.35 | 0.06 | 361
9 | YXEGTFTSDYSIXLDXKAQXAFIEYLIEGGPSSGAPPPS (Aib2; αMeL13; Aib16; K17((2-[2-(2-Amino-ethoxy)-ethoxy]-acetyl)2-(γ-Glu)-CO-(CH2)18-CO2H); Aib20; C-terminal NH2) [Example 60] | 9.55 | 0.0655 | 237
10 | YXEGTFTSDYSIXLDEKAQXAFIEYLIEGGPSSGAPPPS (Aib2; αMeL13; K17((2-[2-(2-Amino-ethoxy)-ethoxy]-acetyl)2-(γ-Glu)-CO-(CH2)18-CO2H); Aib20; C-terminal NH2) [Example 59] | 8.2 | 0.136 | 292
11 | YXEGTXTSDYSILLDKKAQXAFIEYLIEGGPSSGAPPPS (Aib2; αMeF6; K17((2-[2-(2-Amino-ethoxy)-ethoxy]-acetyl)2-(γ-Glu)-CO-(CH2)18-CO2H); Aib20; C-terminal NH2) [Example 57] | 3 | 0.0583 | 26.1
12 | YXEGTXTSDYSIXLDXKAQXEFIXYLIEGGPSSGAPPPS (Aib2; αMeF(2F)6; αMeL13; Orn16; K17((2-[2-(2-Amino-ethoxy)-ethoxy]-acetyl)2-(γ-Glu)-CO-(CH2)18-CO2H); Aib20; D-Glu24; C-terminal NH2) [Example 3] | 2.23 | 0.0458 | 242
13 | YXEGTFTSDYSIXLDSKAQXAFIEYLLEGGPSSGAPPPS (Aib2; αMeL13; K17((2-[2-(2-Amino-ethoxy)-ethoxy]-acetyl)2-(γ-Glu)-CO-(CH2)18-CO2H); Aib20; C-terminal NH2) [Example 61] | 11.1 | 0.102 | 110
14 | HXEGTFTSDYSIXLDKKAQXAFIEYLIEGGPSSGAPPPS (Aib2; αMeL13; K17((2-[2-(2-Amino-ethoxy)-ethoxy]-acetyl)2-(γ-Glu)-CO-(CH2)18-CO2H); Aib20; C-terminal NH2) [Example 53] | 1.23 | 0.188 | 216
15 | Y[Aib]EGTFTSDYSI[αMeL]LDEK([AEEA-AEEA-γGlu-C20 diacid])AQ[αMeK]AFIEYLLEGGPSSGAPPPS-NH2 (N-terminus assumed; SMILES CC[C@H](C)[C@H](NC(=O)[C@H](Cc1ccccc1)NC(=O)[C@H](C)NC(=O)[C@](C)(CCCCN)NC(=O)[C@H](CCC(N)=O)NC(=O)[C@H](C)NC(=O)[C@H](CCCCNC(=O)COCCOCCNC(=O)COCCOCCNC(=O)CC[C@H](NC(=O)CCCCCCCCCCCCCCCCCCC(=O)O)C(=O)O)NC(=O)[C@H](CCC(=O)O)NC(=O)[C@H](CC(=O)O)NC(=O)[C@H](CC(C)C)NC(=O)[C@](C)(CC(C)C)NC(=O)[C@@H](NC(=O)[C@H](CO)NC(=O)[C@H](Cc1ccc(O)cc1)NC(=O)[C@H](CC(=O)O)NC(=O)[C@H](CO)NC(=O)[C@@H](NC(=O)[C@H](Cc1ccccc1)NC(=O)[C@@H](NC(=O)CNC(=O)[C@H](CCC(=O)O)NC(=O)C(C)(C)NC(=O)[C@@H](N)Cc1ccc(O)cc1)[C@@H](C)O)[C@@H](C)O)[C@@H](C)CC)C(=O)N[C@@H](CCC(=O)O)C(=O)N[C@@H](Cc1ccc(O)cc1)C(=O)N[C@@H](CC(C)C)C(=O)N[C@@H](CC(C)C)C(=O)N[C@@H](CCC(=O)O)C(=O)NCC(=O)NCC(=O)N1CCC[C@H]1C(=O)N[C@@H](CO)C(=O)N[C@@H](CO)C(=O)NCC(=O)N[C@@H](C)C(=O)N1CCC[C@H]1C(=O)N1CCC[C@H]1C(=O)N1CCC[C@H]1C(=O)N[C@@H](CO)C(N)=O) [Example 21] | 14.5 | 0.529 | 149
16 | YXEGTXTSDLSILLDKKAQXAFIEYLIEGGPSSGAPPPS (Aib2; αMeF6; K17((2-[2-(2-Amino-ethoxy)-ethoxy]-acetyl)2-(γ-Glu)-CO-(CH2)18-CO2H); Aib20; C-terminal NH2) [Example 129] | 1 | 0.0278 | 14.9
17 | YXEGTXTSDISILLDKKAQXAFIEYLIEGGPSSGAPPPS (Aib2; αMeF6; K17((2-[2-(2-Amino-ethoxy)-ethoxy]-acetyl)2-(γ-Glu)-CO-(CH2)18-CO2H); Aib20; C-terminal NH2) [Example 127] | 1.86 | 0.126 | 43.6
18 | YXEGTFTSDYSIXLDEKAQXAFIEYLLEGGPSSGAPPPS (Aib2; αMeL13; K17((2-[2-(2-Amino-ethoxy)-ethoxy]-acetyl)2-(γ-Glu)-CO-(CH2)18-CO2H); Aib20; C-terminal NH2) [Example 66] | 7.53 | 0.106 | 93.7
19 | YXEGTXTSDHSILLDKKAQXAFIEYLIEGGPSSGAPPPS (Aib2; αMeF6; K17((2-[2-(2-Amino-ethoxy)-ethoxy]-acetyl)2-(γ-Glu)-CO-(CH2)18-CO2H); Aib20; C-terminal NH2) [Example 128] | 1.88 | 0.0625 | 433
20 | YXEGTFTSDYSIXLDKKAQXAFIEYLIEGGPSSGAPPPS (Aib2; αMeL13; K17((2-[2-(2-Amino-ethoxy)-ethoxy]-acetyl)2-(γ-Glu)-CO-(CH2)18-CO2H); Aib20; C-terminal NH2) [Example 20] | 3.3 | 0.0849 | 228
